{"source": "paper PMC8308607", "about": "“Antistaphylococcal Activity of the FtsZ Inhibitor C109” (Pathogens, 2021)", "proteins": {"B1": {"name": "wild-type FtsZ of S. aureus (natural protein, Staphylococcus aureus ATCC 25923, UniProt P0A031 1-390, looked up)", "chain": "MLEFEQGFNHLATLKVIGVGGGGNNAVNRMIDHGMNNVEFIAINTDGQALNLSKAESKIQIGEKLTRGLGAGANPEIGKKAAEESREQIEDAIQGADMVFVTSGMGGGTGTGAAPVVAKIAKEMGALTVGVVTRPFSFEGRKRQTQAAAGVEAMKAAVDTLIVIPNDRLLDIVDKSTPMMEAFKEADNVLRQGVQGISDLIAVSGEVNLDFADVKTIMSNQGSALMGIGVSSGENRAVEAAKKAISSPLLETSIVGAQGVLMNITGGESLSLFEAQEAADIVQDAADEDVNMIFGTVINPELQDEIVVTVIATGFDDKPTSHGRKSGSTGFGTSVNTSSNATSKDESFTSNSSNAQATDSVSERTHTTKEDDIPSFIRNREERRSRRTRR", "notes": "FtsZ, cell division protein, Staphylococcus aureus ATCC 25923; full-length ftsZ gene (1173 bp) amplified from genomic DNA; Cloned into pETSUMO by In-Fusion; also called SaFtsZ; full-length S. aureus FtsZ; source: E. coli BL21(DE3), purified (HisTrap HP nickel column, SUMO protease, Superdex-75 SEC)"}}, "biological_target": "the molecule itself", "assay": "co-sedimentation; polymerization (sedimentation) assay: 12 μM SaFtsZ, 2 mM GTP, 50 mM MES pH 6.5, 5 mM Mg(CH3COO)2, 100 mM CH3CO2K, 10 min at 30 °C, ultracentrifuged at 350,000 x g for 10 min at 25 °C, pellet and supernatant on SDS-PAGE; with or without 50 μM C109"}
{"protein": "B1", "values": [{"measurement": "binding result", "result": "binds"}]}
